pKd: −log10 of the molar value.
Tests used:
[1] = molecular target: chicken Tapasin (chTapasin), luminal domain (chicken (Gallus gallus)); test: SPR
[2] = molecular target: FITC-labelled peptide (FITC)…; test: fluorescence polarisation
[3] = molecular target: chicken Tapasin (chTapasin), luminal domain (chicken (Gallus gallus)); test: NMR titration

Substance | pKd [1] | pKd [2] | lifetime of the complex [3]
open HLA-B*37:01 (heavy chain G120C, β2m H31C, interchain disulfide), empty (UV-irradiated) (from UniProt P61769 21-119) (complex) | 5.92 | 8.21 | > 200 ms
empty open B*37:01/chTapasin complex (from UniProt P61769 21-119) |  | 8.26 | 

Source: PMC10534222
